Laboratory results taken from PMC9429925.
pKd: −log10 of the molar value.

Columns and labels:
DcuR = DcuR (UniProt P0AD01); experiment: size exclusion chromatography with SDS-PAGE of fractions; conditions: reference: PASC-Kin without ATP, mixed with DcuR; sites H349
OmpR (Escherichia coli) = OmpR (Escherichia coli) (UniProt P0AA16); conditions: cited from earlier work
[1] = biological target: FixJ (Rhizobium meliloti) (UniProt P10958); conditions: cited from earlier work
Sequence of FixJ (Rhizobium meliloti) (P10958 whole entry): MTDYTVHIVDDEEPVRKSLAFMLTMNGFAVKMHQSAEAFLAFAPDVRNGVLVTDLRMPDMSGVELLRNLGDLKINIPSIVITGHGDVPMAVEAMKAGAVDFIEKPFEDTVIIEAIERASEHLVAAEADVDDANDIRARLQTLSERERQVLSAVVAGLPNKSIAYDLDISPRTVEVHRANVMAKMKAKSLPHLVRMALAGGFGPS

Sequence of EnvZ cytoplasmic portion (P0AEJ4 180-450): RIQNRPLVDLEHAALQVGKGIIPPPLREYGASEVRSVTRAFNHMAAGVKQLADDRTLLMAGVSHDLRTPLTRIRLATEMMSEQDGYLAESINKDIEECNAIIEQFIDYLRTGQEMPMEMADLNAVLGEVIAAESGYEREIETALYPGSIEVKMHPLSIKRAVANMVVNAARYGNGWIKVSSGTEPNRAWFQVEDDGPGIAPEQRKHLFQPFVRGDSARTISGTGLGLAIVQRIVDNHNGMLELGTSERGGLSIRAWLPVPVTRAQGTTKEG
Sequence of FixL heme-binding and kinase domains (P10955 127-505): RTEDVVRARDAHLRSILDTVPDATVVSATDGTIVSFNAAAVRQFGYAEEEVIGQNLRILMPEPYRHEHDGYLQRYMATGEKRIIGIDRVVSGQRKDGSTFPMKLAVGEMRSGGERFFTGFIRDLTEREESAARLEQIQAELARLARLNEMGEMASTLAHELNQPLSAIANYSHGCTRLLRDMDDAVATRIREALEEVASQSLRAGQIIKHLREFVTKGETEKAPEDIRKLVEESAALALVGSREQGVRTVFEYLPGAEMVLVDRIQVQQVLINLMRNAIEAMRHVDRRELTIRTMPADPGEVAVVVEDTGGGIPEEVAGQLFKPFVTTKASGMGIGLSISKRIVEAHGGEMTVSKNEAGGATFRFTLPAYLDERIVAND
Sequence of OmpR (Escherichia coli) (P0AA16 whole entry): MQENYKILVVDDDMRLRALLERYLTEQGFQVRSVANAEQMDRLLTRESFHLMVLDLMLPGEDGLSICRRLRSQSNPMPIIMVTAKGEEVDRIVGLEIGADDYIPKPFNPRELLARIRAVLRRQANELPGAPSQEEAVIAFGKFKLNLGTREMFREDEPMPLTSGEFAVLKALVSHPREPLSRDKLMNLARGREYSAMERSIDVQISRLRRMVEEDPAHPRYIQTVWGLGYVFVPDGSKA

Question: For “DcuS (cytoplasmic part: PASC-Kin) PASC-Kin, 212-539 (from UniProt P0AEC8) PASC-Kin pre-incubated with ATP, mixed with DcuR”, which “other: mol DcuR per mol PASC-Kin in complex peak” value (DcuR) is on record?
Answer: stronger; reference approximately 0.11

Question: With “EnvZ cytoplasmic portion (from UniProt P0AEJ4)” as the substance, how does the pKd (OmpR (Escherichia coli)) read?
Answer: 6.37

Question: With “FixL heme-binding and kinase domains (from UniProt P10955)” as the substance, how does the pKd [1] read?
Answer: 5.40
